From article PMC10104839, “Structural basis for sequence-specific recognition of guide and target strands by the Archaeoglobus fulgidus Argonaute protein” (Scientific Reports, 2023) come the findings set out here.

In general, Kd refers to a measure of binding affinity in units of concentration.

Data set [1] addresses T1, AfAgo (Archaeoglobus fulgidus DSM 4304, UniProt O28951 1-427).
T1 sequence: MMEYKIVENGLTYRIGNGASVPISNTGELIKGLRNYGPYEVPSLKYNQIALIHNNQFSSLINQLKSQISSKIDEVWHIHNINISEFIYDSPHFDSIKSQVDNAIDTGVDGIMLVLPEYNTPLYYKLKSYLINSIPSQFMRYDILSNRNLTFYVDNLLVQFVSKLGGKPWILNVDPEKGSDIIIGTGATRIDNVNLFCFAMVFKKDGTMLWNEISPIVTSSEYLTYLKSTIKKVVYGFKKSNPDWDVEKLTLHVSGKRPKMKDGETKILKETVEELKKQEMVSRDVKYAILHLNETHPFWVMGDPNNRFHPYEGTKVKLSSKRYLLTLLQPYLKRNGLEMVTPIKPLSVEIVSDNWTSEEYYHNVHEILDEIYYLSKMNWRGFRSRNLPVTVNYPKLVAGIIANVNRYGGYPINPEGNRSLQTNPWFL
Briefly: EMSA; EMSA: 40 mM Tris-acetate pH 8.4 (25 C), 1 mM EDTA, 100 mM K-acetate, 0.1 mg/ml BSA, 1 mM DTT, 10% glycerol; 5 nM NA (1 nM 32P + 4 nM cold); 10 min at 25 C. Conditions: protein: recombinant; tags: N-terminal His (HisTrap; construct name NHis-Af1318); label: 5'-32P. (In general: A gel shift assay detects complexes by their altered migration in electrophoresis.)

Data set [2] deals with T1, AfAgo. Briefly: EMSA; pre-formed duplex; EMSA: 40 mM Tris-acetate pH 8.4 (25 C), 1 mM EDTA, 100 mM K-acetate, 0.1 mg/ml BSA, 1 mM DTT, 10% glycerol; 5 nM NA (1 nM 32P + 4 nM cold); 10 min at 25 C. The conditions noted are these: protein: recombinant; tags: N-terminal His (HisTrap; construct name NHis-Af1318); label: 5'-32P; blunt.
Data set [3] deals with T1, AfAgo. Description: X-ray crystallography; 5 mM Mg2+ in complex preparation; EMSA: 40 mM Tris-acetate pH 8.4 (25 C), 1 mM EDTA, 100 mM K-acetate, 0.1 mg/ml BSA, 1 mM DTT, 10% glycerol; 5 nM NA (1 nM 32P + 4 nM cold); 10 min at 25 C. Conditions: protein: recombinant; tags: N-terminal His (HisTrap; construct name NHis-Af1318); blunt, self-complementary, 2 strand copies.
Data set [4] deals with T1, AfAgo. Briefly: X-ray crystallography; Mg2+; EMSA: 40 mM Tris-acetate pH 8.4 (25 C), 1 mM EDTA, 100 mM K-acetate, 0.1 mg/ml BSA, 1 mM DTT, 10% glycerol; 5 nM NA (1 nM 32P + 4 nM cold); 10 min at 25 C. The conditions noted are these: protein: recombinant; tags: N-terminal His (HisTrap; construct name NHis-Af1318); blunt, self-complementary, 2 strand copies.
For data set [5], the target named is T1, AfAgo. Briefly: EMSA; AfAgo pre-loaded with gRNA (1:2), target titrated; no heparin; EMSA: 40 mM Tris-acetate pH 8.4 (25 C), 1 mM EDTA, 100 mM K-acetate, 0.1 mg/ml BSA, 1 mM DTT, 10% glycerol; 5 nM NA (1 nM 32P + 4 nM cold); 10 min at 25 C. The conditions noted are these: protein: recombinant; tags: N-terminal His (HisTrap; construct name NHis-Af1318); label: 5'-32P on target; guide nt 1-8 complementary to target 3' end; rest largely unpaired.

Data set [6] concerns the molecule itself. Description: crystal structure; AfAgo-DNA oligoduplex complexes, 90-120 uM (as monomer), crystals grown at 4-8 °C; P1 crystals (5'P-ATC DNA) hold two DNA-bound subunits per asymmetric unit; in the P22(1)2(1) crystals (5'P-ATT DNA) the dimer is formed by a crystallographic symmetry operator.

B1: MZ-1447 ATT ssDNA (ssDNA)
DNA: ATTGTACACGGCCGAAT
modifications: 5'-phosphate
In the case of B1, the Kd with AfAgo [1] was determined as 236 ± 35 nM.

B2: MZ-1707 AGU ssRNA (ssRNA)
RNA: AGUGUACACGGCCGACU
modifications: 5'-phosphate
As to B2, in the data set with AfAgo [1], the Kd is 84 ± 2.9 nM.

B3: MZ-1480/MZ-1481 dsRNA (dsRNA)
RNA 1: AUUGUACACGGCCGAAU
RNA 2: AUUCGGCCGUGUACAAU
modifications: 5'-phosphate
Turning to B3, the Kd with AfAgo [2] came out at 15 ± 0.9 nM.

B4: MZ-952 5'-ATC oligoduplex (dsDNA)
DNA 1: ATCGTGGCCACGAT
DNA 2: ATCGTGGCCACGAT
modifications: 5'-phosphate
For B4, the binding result with AfAgo [3] was “binds”.

B5: MZ-1480/MZ-1455 RNA/DNA heteroduplex (DNA:RNA)
RNA: AUUGUACACGGCCGAAU
DNA: ATTCGGCCGTGTACAAT
modifications: 5'-phosphate
Take B5: in the data set with AfAgo [2], the dissociation constant (Kd) was found to be 6.1 ± 0.04 nM.

B6: MZ-1288 5'-ATT oligoduplex (dsDNA)
DNA 1: ATTGTGGCCACAAT
DNA 2: ATTGTGGCCACAAT
modifications: 5'-phosphate
On to B6, for which, in the data set with AfAgo [4], the binding result is on record as “binds”.

B7: gRNA MZ-1480 + target RNA MZ-1556 (8 nt) (dsRNA)
RNA 1: AUUGUACACGGCCGAAU
RNA 2: CGGAAUAUAUGUACAAU
modifications: 5'-phosphate
In the case of B7, the Kd in the data set with AfAgo [5] was 33 ± 4.2 nM.

B8: MZ-1447/MZ-1455 dsDNA (dsDNA)
DNA 1: ATTGTACACGGCCGAAT
DNA 2: ATTCGGCCGTGTACAAT
modifications: 5'-phosphate
With B8, the Kd in the data set with AfAgo [2] turned out to be 37 ± 17 nM.

B9: MZ-1698 GUU ssRNA (ssRNA)
RNA: GUUGUACACGGCCGAAC
modifications: 5'-phosphate
Take B9: the equilibrium dissociation constant (Kd) with AfAgo [1] turned out to be 42 ± 2.1 nM.

B10: MZ-1289 5'-ATT oligoduplex (dsDNA)
DNA 1: ATTGTACGTACAAT
DNA 2: ATTGTACGTACAAT
modifications: 5'-phosphate
In the case of B10, the binding result in the data set with AfAgo [3] is listed as “binds”.

B11: MZ-1480 5'P-AUU ssRNA (ssRNA)
RNA: AUUGUACACGGCCGAAU
modifications: 5'-phosphate
With B11, the Kd with AfAgo [1] is 3.8 ± 0.1 nM.

B12: Archaeoglobus fulgidus Argonaute protein (AfAgo) (natural protein, Archaeoglobus fulgidus DSM 4304)
chain: T1 sequence
notes: AfAgo, hypothetical protein from Archaeoglobus fulgidus DSM 4304, GenBank NP_070147.1, cloned in pETDuet-1; also called AfPIWI; Af1318; source: E. coli, purified (Ni2+ HiTrap chelating, RNase A/T1 treatment, HiTrap Heparin, Superdex 200)
In the case of B12, the binding result in data set [6] is recorded as “binds”.

B13: gRNA MZ-1480 + target DNA MZ-1560 (8 nt) (DNA:RNA)
RNA: AUUGUACACGGCCGAAU
DNA: CGGAATATATGTACAAT
modifications: 5'-phosphate
With B13, the equilibrium dissociation constant (Kd) in the data set with AfAgo [5] was determined as 7.5 ± 0.4 nM.

B14: MZ-1708 CUU ssRNA (ssRNA)
RNA: CUUGUACACGGCCGAAG
modifications: 5'-phosphate
Take B14: the Kd with AfAgo [1] was 28 ± 2.7 nM.

B15: MZ-1706 AUC ssRNA (ssRNA)
RNA: AUCGUACACGGCCGGAU
modifications: 5'-phosphate
With B15, in the data set with AfAgo [1], the equilibrium dissociation constant (Kd) was found to be 16 ± 2.1 nM.

B16: MZ-1699 UUU ssRNA (ssRNA)
RNA: UUUGUACACGGCCGAAA
modifications: 5'-phosphate
With B16, the Kd in the data set with AfAgo [1] was 15 ± 2.8 nM.
